Results on two molecules are retold here after patent publication US7005419 (US Dept. of Health and Human Services, dated 2006).

The target in one test is Cdk2 (human, UniProt P24941 1-298). As to the kind of experiment: GST pull-down from RKO cell lysate, anti-Cdk2 immunoblot.
A further test deals with T1, Cyclin B1 (human, UniProt P14635 1-433).
T1 construct: Endogenous cellular protein
As to the kind of experiment: GST pull-down from RKO cell lysate, anti-cyclin B1 immunoblot. A general note: Immunoblotting shows a protein as a band on a membrane.

The target in a further test is T2, p21^Cip1/Wafl (human, UniProt P38936 1-164, limits assumed).
T2 construct: Both are written as one molecule; also called p21^wafl
T2 sequence (P38936 whole entry): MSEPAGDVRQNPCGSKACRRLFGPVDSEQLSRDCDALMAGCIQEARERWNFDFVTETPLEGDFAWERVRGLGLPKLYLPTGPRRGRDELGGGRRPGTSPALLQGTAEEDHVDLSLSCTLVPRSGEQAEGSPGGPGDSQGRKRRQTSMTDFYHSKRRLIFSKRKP
As to the kind of experiment: co-immunoprecipitation with anti-p21 from transfected HCT116 cells, anti-HA Western blot. On the procedure: (§1) The immunoprecipitates were then analyzed by Western blot with anti-HA antibody.

In a further test the target is T3, Cdc2 (human, UniProt P06493 1-297).
T3 construct: Endogenous cellular protein; also called cellular Cdc2; Cdc2 polypeptide
T3 sequence (P06493 whole entry): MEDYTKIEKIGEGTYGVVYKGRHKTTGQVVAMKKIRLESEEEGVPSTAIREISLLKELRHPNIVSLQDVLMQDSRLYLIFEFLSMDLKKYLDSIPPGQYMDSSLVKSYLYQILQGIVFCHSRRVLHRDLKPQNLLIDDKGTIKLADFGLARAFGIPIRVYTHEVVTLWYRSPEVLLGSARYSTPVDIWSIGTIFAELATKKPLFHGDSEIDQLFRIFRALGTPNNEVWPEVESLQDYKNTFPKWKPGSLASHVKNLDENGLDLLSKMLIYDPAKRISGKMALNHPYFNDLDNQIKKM
As to the kind of experiment: co-immunoprecipitation with anti-Cdc2 from transfected HCT116 cells, anti-HA Western blot. On the procedure: as §1

The next test addresses T4, PCNA (human, UniProt P12004 1-261).
T4 construct: Endogenous cellular protein
Nature of the test: co-immunoprecipitation with anti-PCNA from transfected HCT116 cells, anti-HA Western blot. On the procedure:
as §1

T1 sequence (P14635 whole entry): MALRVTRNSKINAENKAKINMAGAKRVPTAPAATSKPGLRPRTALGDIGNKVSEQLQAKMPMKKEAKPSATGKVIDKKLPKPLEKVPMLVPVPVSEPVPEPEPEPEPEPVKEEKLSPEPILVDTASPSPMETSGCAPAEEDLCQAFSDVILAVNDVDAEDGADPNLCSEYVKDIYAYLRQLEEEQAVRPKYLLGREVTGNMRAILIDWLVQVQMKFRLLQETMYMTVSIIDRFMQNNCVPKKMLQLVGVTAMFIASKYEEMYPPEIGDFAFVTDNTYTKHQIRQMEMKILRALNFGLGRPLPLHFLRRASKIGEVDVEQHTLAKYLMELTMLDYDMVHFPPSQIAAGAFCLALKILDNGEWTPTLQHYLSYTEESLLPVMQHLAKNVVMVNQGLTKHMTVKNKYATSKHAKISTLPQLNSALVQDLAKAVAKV
T4 sequence (P12004 whole entry): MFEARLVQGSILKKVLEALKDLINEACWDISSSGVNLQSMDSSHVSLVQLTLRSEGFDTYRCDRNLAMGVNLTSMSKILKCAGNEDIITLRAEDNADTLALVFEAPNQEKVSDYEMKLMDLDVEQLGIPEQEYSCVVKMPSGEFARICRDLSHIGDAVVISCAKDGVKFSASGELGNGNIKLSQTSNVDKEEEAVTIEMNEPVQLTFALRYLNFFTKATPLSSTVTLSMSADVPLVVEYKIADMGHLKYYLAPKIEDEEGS

B1: glutathione-S-transferase (GST)/GADD45 fusion protein (other)
chain: TLEEFSAGEQKTERMDKVGDALEEVLSKALSQRTITVGVYEAAKLLNVDPDNVVLCLLAADEDDDRDVALQIHFTLIQAFCCENDINILRVSNPGRLAELLLLETDAGPAASEGAEQPPDLHCVLVTNPHSSQWKDPALSQLICFCRESRYMDQWVPVINLPER
notes: GADD45 insert was amplified from pHul45B2 and cloned XhoI/NotI into pGEX4T; also called GST-tagged GADD45; not shown: Glutathione-S-transferase encoded by the pGEX4T vector (Pharmacia)
B1: the binding result with Cdk2 and with Cyclin B1 was “no binding (tested: 100 ng)” each time.

B2: GADD45 deletion mutant del50-76 (HA-tagged) (other, not shown: small tags and cut ends)
chain: MTLEEFSAGEQKTERMDKVGDALEEVLSKALSQRTITVGVYEAAKLLNVLIQAFCCENDINILRVSNPGRLAELLLLETDAGPAASEGAEQPPDLHCVLVTNPHSSQWKDPALSQLICFCRESRYMDQWVPVINLPER
notes: The junction is not described
In the case of B2, the binding result with p21^Cip1/Wafl, with Cdc2 and in the test with PCNA was “no binding” throughout.
